What was measured:
tPA [1] = biological target: T1, tPA (Homo sapiens, UniProt P00750); test: Plasminogen-activation assay (tPA activation, S-2251); type: biochemical
Experimental: Plasmin (Pls) activity was assayed as described^16. Peptides and proteins that were tested for their stimulatory ability were regularly used at 100 μg ml^−1. […] Chromogenic substrate S-2251 (Chromogenix, Instrumentation Laboratory SpA, Milano, Italy) was used to measure Pls activity. Conversion of zymogen factor XII (#233490, Calbiochem, EMD Biosciences, Inc., San Diego, Calif.) to proteolytically active factor XII (factor XIIa) was assayed by measurement of the conversion of chromogenic substrate Chromozym-PK (Roche Diagnostics, Almere, The Netherlands) by kallikrein. Chromozym-PK was used at a concentration of 0.3 mM. Factor XII, human plasma prekallikrein (#529583, Calbiochem) and human plasma cofactor high-molecular weight kininogen (#422686, Calbiochem) were used at concentrations of 1 μg ml^−1. […] Assays were performed using microtiter plates (Costar, Cambridge, Mass., USA). Peptides and proteins were tested for their ability to activate factor XII. 150 μg ml^−1 kaolin, an established activator of factor XII was used as positive control and solvent (H2O) as negative control. The conversion of Chromozym-PK was recorded kinetically at 37° C. for at least 60 minutes. Assays were done in duplicate.
(§1) Formulated protein therapeutics were obtained from the local hospital pharmacy and were used as supplied by the manufacturers. […] Lyophilized therapeutics were dissolved according to the manufacturers recommendations. GH, zinc-insulin, Cealb and gelatin were stored at −20, 4, room temperature, 37 and 65° C. Other protein therapeutics were only kept at 4° C., and assayed for the presence of cross-β structure at shown time points. Enhancement in fluorescence of ThT and Congo red was measured with all formulated protein therapeutics. For this purpose, proteins were diluted to the indicated concentrations. […] Zinc-insulin was diluted tenfold in the activation assay, GH was diluted to a final concentration of 500 μg ml^−1. Activation of factor XII and prekallikrein by the therapeutics was tested in the chromogenic factor XII assay (see above). […] After coating, plates were blocked with Blocking Reagent (Roche Diagnostics, Almere, The Netherlands).
(§2) To prepare structurally altered ovalbumin (OVA) with amyloid cross-β structures, purified OVA (Sigma, A-7641, lot 071k7094) was heated to 85° C. One mg ml^−1 OVA in 67 mM NaPi buffer pH 7.0, 100 mM NaCl, was heated for two cycles in PCR cups in a PTC-200 thermal cycler (MJ Research, Inc., Waltham, Mass., USA). In each cycle, OVA was heated from 30 to 85° C. at a rate of 5° C./min. Native OVA (nOVA) and heat-denatured OVA (dOVA) were tested in the ThT fluorescence assay and in the Plg-activation assay. In the fluorescence assay and in the Plg-activation assay, 25 and 100 μg ml^−1 nOVA and dOVA were tested, respectively. TEM images of nOVA and dOVA were taken to check for the presence of large aggregates.
MSA (#126674, Calbiochem) was dissolved in 8 M urea, 100 mM Tris-HCl pH 8.2, at 10 mg ml^−1 final concentration. Dithiothreitol (DTT) was added to a final concentration of 10 mM. Air was replaced by N2 and the solution was incubated for 2 h at room temperature. Then, the solution was transferred to ice and iodoacetamide was added from a 1 M stock to a final concentration of 20 mM. […] Alkyl-MSA was dialyzed against H2O before use. […] In the ThT-fluorescence assay 25 μg ml^−1 nMSA and alkyl-MSA were tested, and in the Plg-activation assay 100 μg ml^−1 was tested. The presence of aggregates or fibrils was analyzed using TEM.
Lyophilized sterile glucagon was dissolved at 1 mg ml^−1 in H2O with 10 mM HCl. The solution was subsequently kept at 37° C. for 24 h, at 4° C. for 14 days and again at 37° C. for 9 days. […] TEM analysis was performed to assess the presence of large multimeric structures.

[2] = Thioflavin T fluorescence of protein solutions; type: physicochemical
Experimental: Fluorescence of ThT—protein/peptide adducts was measured as follows. […] Fluorescence was measured at 485 nm upon excitation at 435 nm. Background signals from buffer, buffer with ThT and protein/peptide solution without ThT were subtracted from corresponding measurements with protein solution incubated with ThT. Regularly, fluorescence of Aβ was used as a positive control, and fluorescence of FP10, a non-amyloid fibrin fragment^16, was used as a negative control. Fluorescence was measured in triplicate on a Hitachi F-4500 fluorescence spectrophotometer (Ltd., Tokyo, Japan).
as §1
ThT fluorescence of β2GPI was measured as follows. […] CL vesicles were prepared according to an established procedure. Briefly, CL was dried under a stream of nitrogen. The lipids were resuspended to a concentration of 10 mg ml^−1 in 25 mM Tris-HCl, pH 7.3, 150 mM NaCl by vigorous agitation, using a vortex. In the ThT fluorescence assay, fluorescence of β2GPI in buffer, of CL or DXS500k in buffer, of buffer and ThT alone, and of β2GPI-CL adducts and β2GPI-DXS500k adducts, with or without ThT, was recorded as described above (section ThT fluorescence). In addition, TEM images were recorded with CL, β2GPI from human plasma, with or without CL, and with recombinant β2GPI, as described^5.
as §2
MSA (#126674, Calbiochem) was dissolved in 8 M urea, 100 mM Tris-HCl pH 8.2, at 10 mg ml^−1 final concentration. Dithiothreitol (DTT) was added to a final concentration of 10 mM. Air was replaced by N2 and the solution was incubated for 2 h at room temperature. Then, the solution was transferred to ice and iodoacetamide was added from a 1 M stock to a final concentration of 20 mM. […] In the ThT-fluorescence assay 25 μg ml^−1 nMSA and alkyl-MSA were tested, and in the Plg-activation assay 100 μg ml^−1 was tested. The presence of aggregates or fibrils was analyzed using TEM. […]

tPA [3] = biological target: T1, tPA; test: tPA/plasminogen activation assay; type: biochemical; settings: % of standardized positive control; 1:10 diluted samples
Experimental: β2-GPI was reduced and alkylated as follows. Sixhundredforty μl of β2-GPI stock was mixed with 640 μl of 8 M Urea (cooled solution) in 0.1 M Tris pH-8.2. The solution was degassed with N2 gas for approximately 6 minutes. From a 1 M DTT stock 12.8 μl was added to the solution, mixed and incubated for 3 hours at room temperature. A 1 M Iodoacetamide (Sigma; I-6125) was prepared, of which 25.6 μl was added to the β2-GPI reaction mixture. The solution was subsequently dialysed against PBS. […] Signals obtained with alkyl-β2gpi are compared with those obtained with native β2gpi starting material and with positive control acid/heat denatured amyloid-like misfolded γ-globulins.
Exiqon Peptide Immobilizer plates were blocked for 1 hour with PBS, 1% Tween20 and rinsed twice with distilled water. The conversion of the chromogenic substrate S-2251 (Chromogenix, Italy) by plasmin was kinetically measured at 37° C. on a Spectramax340 microplate reader at a wavelength of 405 nm. […] Denatured γ-globulins (100 μg/ml) with amyloid-like structure was used as reference and positive control. Lyophilized γ-globulins (Sigma, Mo., USA) were dissolved in a 1(:)1 volume ratio of 1,1,1,3,3,3-hexafluoro-2-propanol and trifluoro-acetic acid and subsequently dried under air. Dried γ-globulins was dissolved in H2O to a final concentration of 1 mg/ml and kept at room temperature for at least three days and subsequently stored at −20° C.
Protein therapeutics were obtained from the local hospital pharmacy and analyzed within the expiry limits as stated by the manufacturers.

T1 sequence (P00750 36-562): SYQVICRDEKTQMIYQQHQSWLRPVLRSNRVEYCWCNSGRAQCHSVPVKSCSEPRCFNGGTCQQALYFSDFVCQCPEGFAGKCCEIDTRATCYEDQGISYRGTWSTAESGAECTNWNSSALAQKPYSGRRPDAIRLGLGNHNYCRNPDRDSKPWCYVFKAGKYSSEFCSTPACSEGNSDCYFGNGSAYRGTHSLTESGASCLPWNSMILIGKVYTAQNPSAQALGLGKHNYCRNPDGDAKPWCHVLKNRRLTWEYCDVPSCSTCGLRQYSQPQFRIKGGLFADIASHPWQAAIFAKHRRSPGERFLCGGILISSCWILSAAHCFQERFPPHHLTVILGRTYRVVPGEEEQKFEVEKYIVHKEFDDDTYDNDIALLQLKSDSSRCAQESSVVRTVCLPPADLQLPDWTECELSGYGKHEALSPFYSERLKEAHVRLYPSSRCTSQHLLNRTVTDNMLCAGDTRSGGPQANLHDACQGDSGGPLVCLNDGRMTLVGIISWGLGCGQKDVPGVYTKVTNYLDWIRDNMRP

Pls activity (tPA activating properties) (tPA [1]; after storage at 65° C.)	tPA activation Max. Activation (tPA [3])	tPA activation (tPA [1]; protein solutions stored at 4° C.)	Substance	enhancement of ThT fluorescence ([2]; after storage at 65° C.)	enhancement of ThT fluorescence ([2]; stored at 4° C.)
induced Pls activity	0%	–	Abciximab: abciximab, an inhibitor of blood platelet aggregation (ReoPro, Centocor)	enhanced ThT fluorescence	–
–	113.95%	induced tPA activation	Somatropin: human growth hormone (Genotropin, Pharmacia)	–	enhance fluorescence of ThT

— patent publication US20080220446A1, “Method for Detecting and/or Removing Protein and/or Peptide Comprising a Cross-Beta Structure From an Aqueous Solution Comprising a Protein” (priority 2005, published 2008)
